Assay results taken from paper PMC6586363, “Phenotypic selection with an intrabody library reveals an anti-apoptotic function of PKM2 requiring Mitofusin-1” (PLoS Biology, 2019).

What was measured:
[1] = molecular target: T1, pyruvate kinase M2 (PKM2), endogenous in 293T cells (Homo sapiens (Human)., UniProt P14618); test: affinity purification with mass spectrometry; lysate (1% Triton X-100) of 293T cells expressing FLAG/Strep-tagged intrabody; anti-FLAG M2 beads 2 h at 4°C, elution with 3X FLAG peptide, then Strep-Tactin; SDS-PAGE with silver stain, bands identified by MALDI TOF/TOF; conditions: partners not purified
T1 construct: pyruvate kinase isoform M2 (PKM2), product of the PKM gene with exon 10; also called 55-kD protein; source: endogenous, HEK293T lysate
T1 sequence (P14618 whole entry, canonical isoform): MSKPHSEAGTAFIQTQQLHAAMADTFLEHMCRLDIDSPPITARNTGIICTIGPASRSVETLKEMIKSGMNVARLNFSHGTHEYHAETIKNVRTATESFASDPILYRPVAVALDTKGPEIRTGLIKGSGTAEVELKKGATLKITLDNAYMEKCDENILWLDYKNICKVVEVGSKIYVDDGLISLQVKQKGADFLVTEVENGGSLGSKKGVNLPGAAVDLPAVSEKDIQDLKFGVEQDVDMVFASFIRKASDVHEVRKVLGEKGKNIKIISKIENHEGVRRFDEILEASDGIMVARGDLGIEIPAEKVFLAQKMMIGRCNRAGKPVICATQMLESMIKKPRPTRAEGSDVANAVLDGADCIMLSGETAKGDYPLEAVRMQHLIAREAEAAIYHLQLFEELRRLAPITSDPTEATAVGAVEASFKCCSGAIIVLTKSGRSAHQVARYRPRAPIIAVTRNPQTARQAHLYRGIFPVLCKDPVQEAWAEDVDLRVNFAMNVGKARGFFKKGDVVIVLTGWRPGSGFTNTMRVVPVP

[2] = molecular target: T2, recombinant human PKM2, wild type (human, UniProt P14618); test: native gel or EMSA; blue native gel electrophoresis; recombinant scFv 5 mixed with recombinant PKM2 (WT or mutant) or PKM1 at various molar ratios, reaction volume 20 μl; conditions: both partners purified
T2 construct: Runs as dimer and tetramer on blue native gels; also called WT PKM2; His-hPKM2; source: E. coli BL21 (DE3), purified (Ni-NTA)
T2 sequence (P14618 whole entry): as the sequence (P14618 whole entry, canonical isoform) above

[3] = molecular target: the molecule itself; test: native gel or EMSA; blue native gel electrophoresis of recombinant PKM2 (WT or mutant) or PKM1, alone or with FBP and/or scFv 5; resolves dimer and tetramer forms

Row | Binder | stoichiometry N [3] | further results
1 | intrabody 5 (IB5) (scFv, V domains shown, human VH and VL joined by a flexible peptide linker, from a naive human combinatorial scFv library; Expressed without a secretion leader from an EF1alpha lentiviral vector; The tandem Strep-tag was added for the target immunoprecipitation construct; also called clone 5; scFv 5; source: HEK293T, infected with intrabody lentivirus, in lysate; not shown: FLAG, C-terminal, kept) VH: QVQLVETGPGLVKPSETLSLRCTVSGGSFDNYYWNWIRQPPGKGLEYIGYVFPSTGATNYNPSLGSRVTISLDTSKNQFSLTLTSVTTADTAIYYCVRSGHDLWTGSTWFDPWGQWTTVTVSS VL: EIVLTQSPGTLSLSPGERATLSCRASQSVSSSYLAWYQQKPGQAPRLLIYGASSRATGIPDRFSGSGSGTDFTLTISRLEPEDIAVYYCQQRSNWPRTFGQGTKVEIK | – | binding result [1]: binds
2 | recombinant monovalent scFv 5 (corresponding to IB5) (scFv, V domains shown, as the scFv of m1; also called purified scFv 5; recombinant scFv; source: E. coli Rosetta (DE3)pLys, pET28a, purified (Ni-NTA)) VH: QVQLVETGPGLVKPSETLSLRCTVSGGSFDNYYWNWIRQPPGKGLEYIGYVFPSTGATNYNPSLGSRVTISLDTSKNQFSLTLTSVTTADTAIYYCVRSGHDLWTGSTWFDPWGQWTTVTVSS VL: EIVLTQSPGTLSLSPGERATLSCRASQSVSSSYLAWYQQKPGQAPRLLIYGASSRATGIPDRFSGSGSGTDFTLTISRLEPEDIAVYYCQQRSNWPRTFGQGTKVEIK | – | binding result [2]: binds
3 | recombinant PKM2 (K422R) (enzyme, human pyruvate kinase isoform M2 with K422R; also called stably tetrameric PKM2 mutant; source: recombinant; WT and mutant PKM2 proteins from E. coli BL21 (DE3), purified (Ni-NTA)) not shown | 4 | –
4 | recombinant PKM2 (K270M) (enzyme, human pyruvate kinase isoform M2 with K270M, plasmid pET28a-His-hPKM2 (K270M); source: E. coli BL21 (DE3), purified (Ni-NTA)) not shown | 2 | –
